The target in data set [1] is T1, TFBg (Halobacterium sp. NRC-1, UniProt Q9HSF7 1-323).
T1 sequence: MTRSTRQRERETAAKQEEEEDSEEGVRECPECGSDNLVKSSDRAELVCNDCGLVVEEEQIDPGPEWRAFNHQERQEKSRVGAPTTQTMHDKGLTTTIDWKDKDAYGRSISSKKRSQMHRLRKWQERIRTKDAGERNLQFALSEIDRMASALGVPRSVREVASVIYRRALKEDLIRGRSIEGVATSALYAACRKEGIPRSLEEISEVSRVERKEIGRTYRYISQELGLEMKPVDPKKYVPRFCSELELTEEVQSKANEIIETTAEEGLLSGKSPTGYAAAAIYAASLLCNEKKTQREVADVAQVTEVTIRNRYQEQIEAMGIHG
Nature of the data set: EMSA. (In general: A gel shift assay detects complexes by their altered migration in electrophoresis.)

Data set [2] concerns the target T2, TFBb (Halobacterium sp. NRC-1, UniProt Q9HRE6 1-325).
T2 sequence: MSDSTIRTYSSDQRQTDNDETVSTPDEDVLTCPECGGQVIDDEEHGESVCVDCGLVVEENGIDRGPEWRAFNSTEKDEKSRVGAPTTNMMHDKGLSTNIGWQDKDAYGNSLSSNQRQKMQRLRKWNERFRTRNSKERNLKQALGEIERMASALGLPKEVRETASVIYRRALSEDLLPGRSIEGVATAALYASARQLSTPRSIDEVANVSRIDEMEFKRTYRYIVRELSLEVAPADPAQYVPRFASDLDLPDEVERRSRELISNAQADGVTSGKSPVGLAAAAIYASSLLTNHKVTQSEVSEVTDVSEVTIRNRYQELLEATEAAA
The data set is described as follows: EMSA.

The results in this text go back to publication PMC2396416.

B1: FM (BRE/TATA of Phsp5 replaced by Pbop) (dsDNA)
DNA 1: GCGGGATCCTCGTAGAGTTACACGAAATGCGGACATAGTTTTGGCTGGAGTCAAGGCATATGAGT
DNA 2: ACTCATATGCCTTGACTCCAGCCAAAACTATGTCCGCATTTCGTGTAACTCTACGAGGATCCCGC
As to B1, the binding result in data set [1] and in data set [2] was “no binding” each time.
